pKd: −log10 of the molar value.
Columns and labels:
[1] = target: IL-2Rβγ subunits on U2OS cells; assay: cell-based or functional assay
[2] = target: IL-2Rαβ subunits on U2OS cells; assay: cell-based or functional assay
[3] = target: Rhesus IL-2Rβγ on CD8+ T and NK cells in whole blood (rhesus monkey)
[4] = target: Rhesus IL-2Rβγ on CD8+ T and NK cells in whole blood (rhesus monkey); remark: listed apart in the source
[5] = target: Rat IL-2Rα, polyhistidine-tagged (rat) (UniProt P26897); assay: SPR (Biacore T200), ratio to human IL-2Rα
[6] = target: Rhesus IL-2Rα, polyhistidine-tagged (rhesus) (UniProt Q5MNY4); assay: SPR (Biacore T200), ratio to human IL-2Rα
[7] = target: Human IL-2Rα, polyhistidine-tagged (human) (UniProt P01589); assay: SPR (Biacore T200), ratio to human IL-2Rα
[8] = target: Cynomolgus IL-2Rα, polyhistidine-tagged (cynomolgus) (UniProt H6WS54); assay: SPR (Biacore T200), ratio to human IL-2Rα
[9] = target: Mouse IL-2Rα, polyhistidine-tagged (mouse) (UniProt P01590); assay: SPR (Biacore T200), ratio to human IL-2Rα
[10] = target: Cynomolgus/Rhesus IL-2Rβ, polyhistidine-tagged (cynomolgus/rhesus) (UniProt Q38J85); assay: SPR (Biacore T200), ratio to human IL-2Rβ
[11] = target: Human IL-2Rβ, polyhistidine-tagged (human) (UniProt P14784); assay: SPR (Biacore T200), ratio to human IL-2Rβ
[12] = target: Human IL-2Rβγ on CD8+ T and NK cells in whole blood (human) (UniProt P14784)
[13] = target: Cynomolgus/Rhesus IL-2Rβ, polyhistidine-tagged (cynomolgus/rhesus) (UniProt Q38J85); assay: SPR (Biacore T200), His-tagged receptor
[14] = target: Rat IL-2Rα, polyhistidine-tagged (rat) (UniProt P26897); assay: SPR (Biacore T200), His-tagged receptor
[15] = target: Rhesus IL-2Rα, polyhistidine-tagged (rhesus) (UniProt Q5MNY4); assay: SPR (Biacore T200), His-tagged receptor
[16] = target: Human IL-2Rα, polyhistidine-tagged (human) (UniProt P01589); assay: SPR (Biacore T200), His-tagged receptor
[17] = target: Cynomolgus IL-2Rα, polyhistidine-tagged (cynomolgus) (UniProt H6WS54); assay: SPR (Biacore T200), His-tagged receptor
[18] = target: Human IL-2Rβ, polyhistidine-tagged (human) (UniProt P14784); assay: SPR (Biacore T200), His-tagged receptor
[19] = target: Mouse IL-2Rα, polyhistidine-tagged (mouse) (UniProt P01590); assay: SPR (Biacore T200), His-tagged receptor
[20] = target: Human IL-2Rβγ on CD8+ T and NK cells in whole blood (human) (UniProt P14784); remark: listed apart in the source

Chain of Human IL-2Rβγ on CD8+ T and NK cells in whole blood (human) (P14784 27-551, chain 1 of 2): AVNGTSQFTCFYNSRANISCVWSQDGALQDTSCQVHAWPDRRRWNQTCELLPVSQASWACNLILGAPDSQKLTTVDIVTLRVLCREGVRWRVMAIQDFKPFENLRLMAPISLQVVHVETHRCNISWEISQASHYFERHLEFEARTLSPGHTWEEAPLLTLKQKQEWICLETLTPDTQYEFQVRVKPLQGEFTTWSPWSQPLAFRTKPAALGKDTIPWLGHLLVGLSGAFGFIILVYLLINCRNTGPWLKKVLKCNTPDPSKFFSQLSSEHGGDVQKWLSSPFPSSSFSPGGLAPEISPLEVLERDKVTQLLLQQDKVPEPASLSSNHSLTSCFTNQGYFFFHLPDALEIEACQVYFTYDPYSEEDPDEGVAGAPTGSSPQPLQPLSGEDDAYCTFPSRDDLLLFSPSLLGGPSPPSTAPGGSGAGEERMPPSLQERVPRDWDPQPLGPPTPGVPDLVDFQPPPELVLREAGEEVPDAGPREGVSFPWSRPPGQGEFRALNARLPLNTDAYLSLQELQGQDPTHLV
Chain of Human IL-2Rβγ on CD8+ T and NK cells in whole blood (human) (P31785 23-369, chain 2 of 2, further chain): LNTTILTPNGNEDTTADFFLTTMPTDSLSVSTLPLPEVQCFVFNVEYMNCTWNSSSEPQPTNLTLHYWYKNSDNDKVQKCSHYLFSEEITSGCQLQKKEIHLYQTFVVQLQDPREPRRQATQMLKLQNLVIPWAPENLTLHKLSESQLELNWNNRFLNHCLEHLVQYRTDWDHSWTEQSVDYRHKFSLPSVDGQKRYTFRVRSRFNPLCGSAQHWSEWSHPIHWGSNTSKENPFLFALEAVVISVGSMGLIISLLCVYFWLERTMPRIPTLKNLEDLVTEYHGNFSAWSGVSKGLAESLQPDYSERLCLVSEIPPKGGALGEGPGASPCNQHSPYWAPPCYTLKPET
Chain of Human IL-2Rβ, polyhistidine-tagged (human) (P14784 27-239 limits assumed): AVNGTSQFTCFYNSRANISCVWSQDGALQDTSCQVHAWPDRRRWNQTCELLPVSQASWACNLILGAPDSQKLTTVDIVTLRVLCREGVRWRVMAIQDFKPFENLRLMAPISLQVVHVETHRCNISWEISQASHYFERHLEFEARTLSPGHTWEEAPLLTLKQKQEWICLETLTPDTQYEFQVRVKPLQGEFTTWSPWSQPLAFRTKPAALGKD
Chain of Rat IL-2Rα, polyhistidine-tagged (rat) (P26897 22-235 limits assumed): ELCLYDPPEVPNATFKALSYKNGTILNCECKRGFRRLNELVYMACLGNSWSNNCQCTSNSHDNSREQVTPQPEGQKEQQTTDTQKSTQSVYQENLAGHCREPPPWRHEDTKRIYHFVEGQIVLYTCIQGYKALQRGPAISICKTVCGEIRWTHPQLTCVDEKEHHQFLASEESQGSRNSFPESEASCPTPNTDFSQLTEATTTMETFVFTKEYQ
Chain of Rhesus IL-2Rα, polyhistidine-tagged (rhesus) (Q5MNY4 22-240 limits assumed): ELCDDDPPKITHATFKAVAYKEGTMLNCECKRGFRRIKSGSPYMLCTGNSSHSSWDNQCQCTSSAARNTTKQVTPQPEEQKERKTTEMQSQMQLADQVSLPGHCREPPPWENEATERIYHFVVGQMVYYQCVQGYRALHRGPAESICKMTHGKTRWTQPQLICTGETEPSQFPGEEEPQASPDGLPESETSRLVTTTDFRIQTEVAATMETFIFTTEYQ
Chain of Mouse IL-2Rα, polyhistidine-tagged (mouse) (P01590 22-236 limits assumed): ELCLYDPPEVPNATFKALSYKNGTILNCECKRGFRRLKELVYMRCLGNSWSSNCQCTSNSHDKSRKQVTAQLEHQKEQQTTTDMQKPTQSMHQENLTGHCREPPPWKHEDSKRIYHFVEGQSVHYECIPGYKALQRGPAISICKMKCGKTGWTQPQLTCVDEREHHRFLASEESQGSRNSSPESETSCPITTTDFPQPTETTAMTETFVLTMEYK
Chain of Human IL-2Rα, polyhistidine-tagged (human) (P01589 22-213 limits assumed): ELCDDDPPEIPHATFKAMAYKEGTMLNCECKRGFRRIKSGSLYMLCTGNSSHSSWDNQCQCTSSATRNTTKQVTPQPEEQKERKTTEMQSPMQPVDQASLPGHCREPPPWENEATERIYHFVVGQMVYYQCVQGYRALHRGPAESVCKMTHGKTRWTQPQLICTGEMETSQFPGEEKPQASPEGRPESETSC
Chain of Cynomolgus/Rhesus IL-2Rβ, polyhistidine-tagged (cynomolgus/rhesus) (Q38J85 27-240 limits assumed): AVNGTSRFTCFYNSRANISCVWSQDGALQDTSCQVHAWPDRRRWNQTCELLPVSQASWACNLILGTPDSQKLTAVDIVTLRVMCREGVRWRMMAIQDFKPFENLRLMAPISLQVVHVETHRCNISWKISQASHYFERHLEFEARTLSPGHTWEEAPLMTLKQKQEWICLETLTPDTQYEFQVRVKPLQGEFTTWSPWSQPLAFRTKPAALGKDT

R38Q/Y45F-IL-2 Fc, bivalent (Fc fusion)
Ave. EC50 of engaging IL-2Rβγ subunits (receptor engagement study, N = 3) [1]: 0.0035 µM | Ave. EC50 of engaging IL-2Rαβ subunits (receptor engagement study, N = 3) [2]: 0.007 µM

R38Q/Y45F-IL-2 Fc, monovalent (from UniProt P01857 104-329) (Fc fusion)
Ave. EC50 of engaging IL-2Rβγ subunits (receptor engagement study, N = 3) [1]: 0.002 µM | Ave. EC50 of engaging IL-2Rαβ subunits (receptor engagement study, N = 3) [2]: 0.4 µM

WT-IL-2 Fc (from UniProt P01857 104-329) (Fc fusion)
EC50; pSTAT5 normalized gMFI in NK cells, rhesus whole blood (Rh donor 20-1068), flow cytometry [3]: 2.44 nM | EC50; pSTAT5 normalized gMFI in CD8 cells, rhesus whole blood (Rh donor 20-1068), flow cytometry [4]: 4.05 nM | KD/KD (hu) [5]: 3.1 | KD/KD (hu) [6]: 1.8 | KD/KD (hu) [7]: 1 | KD/KD (hu) [8]: 1.1 | KD/KD (hu) [9]: 1 | KD/KD (hu) [10]: 1.4 | KD/KD (hu) [11]: 1 | EC50; pSTAT5 normalized gMFI in CD8 cells, human whole blood (Hu donor 2), flow cytometry [12]: 1.41 nM | pKd [13]: 5.89 | pKd [14]: 7.06 | pKd [15]: 7.31 | pKd [16]: 7.55 | pKd [17]: 7.52 | pKd [18]: 6.03 | pKd [19]: 7.54 | EC50; pSTAT5 normalized gMFI in NK cells, human whole blood (Hu donor 2), flow cytometry [20]: 0.35 nM

Y45R-IL-2 Fc, bivalent (Fc fusion)
Ave. EC50 of engaging IL-2Rβγ subunits (receptor engagement study, N = 3) [1]: 0.0023 µM | Ave. EC50 of engaging IL-2Rαβ subunits (receptor engagement study, N = 3) [2]: 0.03 µM

Reference: US20240309061A1
